This is an account of results in publication PMC5515580.

One experiment concerns the target Recombinant PKA (UniProt P17612).
For another experiment, the target named is MAST3-HA (human) (UniProt O60307).
MAST3-HA (human), sequence (O60307 313-1021): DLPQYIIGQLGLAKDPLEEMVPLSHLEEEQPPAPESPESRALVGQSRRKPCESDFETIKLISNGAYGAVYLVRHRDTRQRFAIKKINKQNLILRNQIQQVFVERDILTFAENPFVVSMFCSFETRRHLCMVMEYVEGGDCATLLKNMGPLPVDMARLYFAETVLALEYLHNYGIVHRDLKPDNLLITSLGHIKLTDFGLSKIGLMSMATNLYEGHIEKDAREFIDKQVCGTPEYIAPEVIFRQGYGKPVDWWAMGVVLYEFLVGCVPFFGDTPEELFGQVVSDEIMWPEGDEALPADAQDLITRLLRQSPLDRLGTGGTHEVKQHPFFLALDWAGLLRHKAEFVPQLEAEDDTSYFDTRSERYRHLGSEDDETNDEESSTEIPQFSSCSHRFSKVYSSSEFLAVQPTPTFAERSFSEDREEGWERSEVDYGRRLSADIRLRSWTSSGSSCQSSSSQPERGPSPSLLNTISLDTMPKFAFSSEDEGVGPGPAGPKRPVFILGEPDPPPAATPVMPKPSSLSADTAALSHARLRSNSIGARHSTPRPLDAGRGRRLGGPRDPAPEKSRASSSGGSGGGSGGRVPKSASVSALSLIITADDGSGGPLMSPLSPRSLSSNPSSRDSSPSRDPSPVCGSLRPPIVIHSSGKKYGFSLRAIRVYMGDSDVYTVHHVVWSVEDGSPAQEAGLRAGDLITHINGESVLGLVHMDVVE

6xHis-ARPP-16, sequence (P56211 17-112): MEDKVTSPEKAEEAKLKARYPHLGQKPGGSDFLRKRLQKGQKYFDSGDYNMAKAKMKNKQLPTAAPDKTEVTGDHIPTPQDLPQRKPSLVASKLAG
P-S46-ARPP-16, sequence (P56211 17-112): as above

For “6xHis-ARPP-16 (from UniProt P56211-2 1-96) (natural protein)”, the Km of phosphorylation of Ser88 by PKA (32P incorporation, 10-500 nM substrate; Figure 1d) with Recombinant PKA came out at 1.69 µM. In addition, in the experiment with MAST3-HA (human), the Km of phosphorylation of Ser46 by immunoprecipitated MAST3 (32P incorporation, 10-500 nM substrate, 2 min; Figure 1b) worked out at 0.09 µM and the Km of phosphorylation of Ser46 by immunoprecipitated MAST3 (32P incorporation, 10-500 nM substrate, 2 min; Figure 1—figure supplement 1) came out at 0.092 µM.

Regarding “P-S46-ARPP-16 (from UniProt P56211-2 1-96) (natural protein)”, the Km of phosphorylation of Ser88 by PKA (32P incorporation, 10-500 nM substrate; Figure 1d) with Recombinant PKA stood at 0.87 µM.
